For experiment [1], the target named is T1, VV B5 monomer protein (Wyeth Vaccinia strain B5 with C-terminal AVI tag and HIS6 tag) (Vaccinia virus, Wyeth strain, UniProt O57254 18-279).
T1 construct: also called B5 protein; VV B5 protein
The experiment can be described thus: ELISA, B5 monomer coated. (An ELISA detects its analyte on a solid surface through an enzyme-linked reagent.)

Experiment [2] has as its target T2, Western Reserve B5 on cells infected with VVddeGFP Western Reserve virus (Vaccinia virus, Western Reserve strain, UniProt Q01227 18-317).
T2 construct: also called VV B5; WR
The experiment in a line: flow cytometry, HT29 cells infected with WR VV. In general terms: Flow cytometry measures light scatter and fluorescence of single cells or particles in a stream.

The target in experiment [3] is T2, Western Reserve B5 on cells infected …. The experiment in a line: flow cytometry, SKOV3 cells infected with WR VV.
Experiment [4] concerns the target T3, Copenhagen B5 on cells infected with VVCopenhagen (YFP) virus (Vaccinia virus, Copenhagen strain, UniProt P21115 18-317).
T3 construct: also called VV B5
The experiment can be described thus: flow cytometry, HT29 cells infected with Copenhagen VV.

Experiment [5] addresses T1, VV B5 monomer protein (Wyeth Vaccinia …). The experiment can be described thus: BLI (Octet), antibody on AHC sensor, B5 monomer analyte. (In general: In BLI a coated tip is dipped into the sample, and binding shifts an interference pattern.)
Experiment [6] has the same target. Described as above. The source holds these as a separate data set.

Changes are numbered by the printed parent chain. Where two headings read alike, the source gives them in different places.

B1: A048-H5L5 (antibody, V domains shown)
VH: QVTLKESGPVLVKPTETLTLTCTASGFSFSSSYYMCWVRQPPGKALEWIACIYTSSGSAYYANWAKGRFTISRDTSKSQVVLTMTNMDPVDTATYFCVRNAVGSSYYLYLWGQGTLVTVSS
VL: EQVLTQSPATLSLSPGERATLSCQASQSVAGNNYLSWYQQKPGQAPRLLIYSVSTLASGIPARFSGSGSGTDFTLTISSLEPEDFAVYYCQGYYNDGIWAFGQGTKLEIK
By EC50 is commonly meant the concentration giving half of the maximal effect. Low readings indicate higher potency in that assay, high ones lower potency in that assay. By Kd is commonly meant a measure of binding affinity in units of concentration. Read a high Kd as weaker binding. By koff is commonly meant a measure of how fast the partners let go of each other. High values mean fast dissociation, low ones slow dissociation. As usually defined, the kon is the second-order rate constant of association. Take B1: the EC50 in experiment [1] is 0.104 nM; in experiment [2], 2.28 nM; in experiment [3], 1.36 nM; in experiment [4], 2.39 nM. Moreover, binding in experiment [5] was put at a Kd of 8.55 nM. The koff in experiment [5] worked out at 0.000521 s⁻¹. In experiment [5], the kon worked out at 60800 M⁻¹ s⁻¹.

B2: A048 parental (antibody, V domains shown)
VH: QEQLEESGGGLVKPEGSLTLTCTASGFSFSSSYYMCWVRQAPGRGLEWIACIYTSSGSAYYANWAKGRFTISRTSSTTVTLQMTRLTAADTATYFCVRNAVGSSYYLYLWGPGTLVTVSS
VL: AQVLTQTPSPVSAAVGGTVTISCQASQSVAGNNYLSWYQQKPGQPPNLLIYSVSTLASGVPSRFKGSGSGTQFTLTISDLECDDAATYYCQGYYNDGIWAFGGGTEVVVK
notes: also called A048 rabbit parental antibody; A048 parental anti-B5 hIgG1
With B2, the EC50 was found to be 0.116 nM in experiment [1], 3.51 nM in experiment [2], 3.98 nM in experiment [3] and 1.08 nM in experiment [4]. The same molecule showed a Kd in experiment [5] of 9.51 nM. For the same molecule, in experiment [5], the koff is 0.000601 s⁻¹. Further, in experiment [5], the kon turned out to be 62400 M⁻¹ s⁻¹.

B3: A048-H3L1 (antibody, V domains shown)
VH: EVQLLESGGGLVQPGGSLRLSCAASGFSFSSSYYMCWVRQAPGKGLEWIACIYTSSGSAYYADSVKGRFTISRDNSKNTLYLQMNSLRAEDTAVYYCVRNAVGSSYYLYLWGQGTLVTVSS
VL: DIQMTQSPSTLSASVGDRVTITCQASQSVAGNNYLSWYQQKPGKAPKLLIYSVSTLASGVPSRFSGSGSGTEFTLTISSLQPDDFATYYCQGYYNDGIWAFGQGTKVEIK
Regarding B3, the half-maximal effective concentration (EC50) in experiment [1] worked out at 0.0854 nM; in experiment [2] it was 0.86 nM; in experiment [3], 0.94 nM; in experiment [4], 0.89 nM. In experiment [5], this molecule registered a Kd of 4.37 nM. The molecule further yielded a koff in experiment [5] of 0.000468 s⁻¹. In addition, the kon in experiment [5] turned out to be 107000 M⁻¹ s⁻¹.

B4: A048-H2L1 (antibody, V domains shown)
VH: EVQLLESGGGLVQPGGSLRLSCAASGFSFSSSYYMCWVRQAPGKGLEWIACIYTSSGSAYYANWAKGRFTISRTSSTTVTLQMNSLRAEDTAVYYCVRNAVGSSYYLYLWGQGTLVTVSS
VL: B3 VL
Consider B4, for which the EC50 in experiment [1] came to 0.0969 nM; in experiment [2], 1.37 nM; in experiment [3], 0.53 nM; in experiment [4], 1.48 nM. Further, binding in experiment [5] was put at a Kd of 7.21 nM. This molecule came in with a koff in experiment [5] of 0.000672 s⁻¹. In experiment [5], this molecule came in with a kon of 93000 M⁻¹ s⁻¹.

B5: A048-H4L1 (antibody, V domains shown)
VH: B4 VH with N63D, W64S, A65V
VL: B3 VL
On to B5, for which the EC50 in experiment [1] was 0.0953 nM; in experiment [2] it was 2.77 nM; in experiment [3], 0.88 nM; in experiment [4], 1.34 nM. The same molecule displayed a Kd in experiment [5] of 6.72 nM. The koff in experiment [5] is 0.000478 s⁻¹. The kon in experiment [5] was found to be 71000 M⁻¹ s⁻¹.

B6: A048-H1L1 (antibody, V domains shown)
VH: B3 VH with D63N, S64W, V65A
VL: B3 VL
With B6, the EC50 in experiment [1] was determined as 0.0862 nM; in experiment [2] it was 0.97 nM; in experiment [3], 1.03 nM; in experiment [4], 2.37 nM. For the same molecule, in experiment [5], the Kd worked out at 9.96 nM. The koff in experiment [5] came to 0.000763 s⁻¹. Further, in experiment [5], the kon is 76600 M⁻¹ s⁻¹.

B7: A048-H4L4 (antibody, V domains shown)
VH: B4 VH with N63D, W64S, A65V
VL: B3 VL with D1A, I2Q, Q3V, M4L, T10S, A45V, E72D, D83E, F85V
With B7, the EC50 in experiment [1] was determined as 0.114 nM; in experiment [2], 3.05 nM; in experiment [3] it was 2.36 nM; in experiment [4] it was 1.32 nM. The same molecule had a dissociation constant Kd in experiment [5] of 9.6 nM. In experiment [5], this molecule gave a koff of 0.000549 s⁻¹. This molecule also showed a kon in experiment [5] of 57000 M⁻¹ s⁻¹.

B8: A048-H3L3 (antibody, V domains shown)
VH: B3 VH
VL: B3 VL with T10S, A45V, E72D, D83E, F85V
Turning to B8, the 50% effective concentration (EC50) in experiment [1] was 0.0979 nM; in experiment [2], 1.81 nM; in experiment [3] it was 0.83 nM; in experiment [4], 1.03 nM. In experiment [5], this molecule had a Kd of 7.71 nM. Also, the koff in experiment [5] is 0.000733 s⁻¹. Further, the kon in experiment [5] turned out to be 94900 M⁻¹ s⁻¹.

B9: A048-H2L4 (antibody, V domains shown)
VH: B4 VH
VL: B3 VL with D1A, I2Q, Q3V, M4L, T10S, A45V, E72D, D83E, F85V
B9: the EC50 amounted to 0.0844 nM in experiment [1], 1.68 nM in experiment [2], 0.69 nM in experiment [3] and 2.85 nM in experiment [4]. Binding in experiment [5] was characterised by a dissociation constant (Kd) of 6.23 nM. The koff in experiment [5] amounted to 0.000512 s⁻¹. The molecule further displayed a kon in experiment [5] of 81600 M⁻¹ s⁻¹.

B10: A048-H4L2 (antibody, V domains shown)
VH: B4 VH with N63D, W64S, A65V
VL: B3 VL with D1A, I2Q, Q3V, M4L
Consider B10, for which the EC50 in experiment [1] turned out to be 0.107 nM; in experiment [2], 6.59 nM; in experiment [3] it was 0.71 nM; in experiment [4], 1.78 nM. Moreover, in experiment [5], the Kd came out at 7.69 nM. In experiment [5], this molecule showed a koff of 0.000481 s⁻¹. In experiment [5], this molecule gave a kon of 62400 M⁻¹ s⁻¹.

B11: A048-H4L3 (antibody, V domains shown)
VH: B4 VH with N63D, W64S, A65V
VL: B3 VL with T10S, A45V, E72D, D83E, F85V
Regarding B11, the EC50 worked out at 0.114 nM in experiment [1], 3.5 nM in experiment [2], 1.37 nM in experiment [3] and 1.12 nM in experiment [4]. In experiment [5], the affinity, expressed as Kd, was 6.31 nM. The molecule also gave a koff in experiment [5] of 0.000476 s⁻¹. Besides, in experiment [5], the kon amounted to 75200 M⁻¹ s⁻¹.

B12: A048-H2L3 (antibody, V domains shown)
VH: B4 VH
VL: B3 VL with T10S, A45V, E72D, D83E, F85V
Turning to B12, the EC50 in experiment [1] stood at 0.0515 nM; in experiment [2], 1.73 nM; in experiment [3], 0.55 nM; in experiment [4] it was 0.77 nM. In addition, the Kd in experiment [5] turned out to be 9.23 nM. Besides, the koff in experiment [5] was 0.000759 s⁻¹. The same molecule returned a kon in experiment [5] of 82100 M⁻¹ s⁻¹.

B13: A048-H1L4 (antibody, V domains shown)
VH: B3 VH with D63N, S64W, V65A
VL: B3 VL with D1A, I2Q, Q3V, M4L, T10S, A45V, E72D, D83E, F85V
For the molecule B13, the EC50 in experiment [1] was found to be 0.102 nM; in experiment [2] it was 0.68 nM; in experiment [3] it was 0.44 nM; in experiment [4], 0.98 nM. In experiment [5], this molecule gave a Kd of 12 nM. Moreover, the koff in experiment [5] came to 0.000953 s⁻¹. The same molecule had a kon in experiment [5] of 79400 M⁻¹ s⁻¹.

B14: A048-H1L3 (antibody, V domains shown)
VH: B3 VH with D63N, S64W, V65A
VL: B3 VL with T10S, A45V, E72D, D83E, F85V
As to B14, the EC50 in experiment [1] is 0.0802 nM; in experiment [2], 3.48 nM; in experiment [3] it was 1.2 nM; in experiment [4] it was 1.88 nM. The same molecule returned a Kd in experiment [5] of 8.76 nM. The same molecule registered a koff in experiment [5] of 0.000846 s⁻¹. In experiment [5], this molecule registered a kon of 96400 M⁻¹ s⁻¹.

B15: A048-H2L2 (antibody, V domains shown)
VH: B4 VH
VL: B3 VL with D1A, I2Q, Q3V, M4L
Regarding B15, the EC50 amounted to 0.0914 nM in experiment [1], 1.71 nM in experiment [2], 0.8 nM in experiment [3] and 1.28 nM in experiment [4]. For the same molecule, the Kd in experiment [5] came to 7.91 nM. Besides, the koff in experiment [5] is 0.000698 s⁻¹. This molecule returned a kon in experiment [5] of 88100 M⁻¹ s⁻¹.

B16: A048-H3L4 (antibody, V domains shown)
VH: B3 VH
VL: B3 VL with D1A, I2Q, Q3V, M4L, T10S, A45V, E72D, D83E, F85V
With B16, the EC50 in experiment [1] is 0.106 nM; in experiment [2] it was 3.78 nM; in experiment [3] it was 1.28 nM; in experiment [4] it was 1.96 nM. The same molecule yielded a Kd in experiment [5] of 8.57 nM. Moreover, the koff in experiment [5] amounted to 0.000722 s⁻¹. This molecule also displayed a kon in experiment [5] of 84100 M⁻¹ s⁻¹.

B17: A048-H1L2 (antibody, V domains shown)
VH: B3 VH with D63N, S64W, V65A
VL: B3 VL with D1A, I2Q, Q3V, M4L
On to B17, for which the EC50 in experiment [1] was found to be 0.0717 nM; in experiment [2], 2.2 nM; in experiment [3], 0.76 nM; in experiment [4], 0.77 nM. The molecule further displayed a Kd in experiment [5] of 9.71 nM. In experiment [5], this molecule yielded a koff of 0.000764 s⁻¹. The same molecule yielded a kon in experiment [5] of 78600 M⁻¹ s⁻¹.

B18: A048-H3L2 (antibody, V domains shown)
VH: B3 VH
VL: B3 VL with D1A, I2Q, Q3V, M4L
As for B18, the EC50 turned out to be 0.0835 nM in experiment [1], 1.32 nM in experiment [2], 0.67 nM in experiment [3] and 1.87 nM in experiment [4]. The Kd was 3 nM in experiment [6] and 3.83 nM in experiment [5]. In experiment [5], this molecule registered a koff of 0.000397 s⁻¹. The molecule also registered a kon in experiment [5] of 103000 M⁻¹ s⁻¹.

For the origin of these results see US20240309070A1 (ADMARE THERAPEUTICS SOCIETY, published 2024).
